Sequences and labels used below:
B1: fetuin (other)
chain: IPLDPVAGYKEPACDDPDTEQAALAAVDYINKHLPRGYKHTLNQIDSVKVWPRRPTGEVYDIEIDTLETTCHVLDPTPLANCSVRQQTQHAVEGDCDIHVLKQDGQFSVLFTKCDSSPDSAEDVRKLCPDCPLLAPLNDSRVVHAVEVALATFNAESNGSYLQLVEISRAQFVPLPVSVSVEFAVAATDCIAKEVVDPTKCNLLAEKQYGFCKGSVIQKALGGEDVRVTCTLFQTQPVIPQPQPDGAEAEAPSAVPDAAGPTPSAAGPPVASVVVGPSVVAVPLPLHRAHYDLRHTFSGVASVESSSGEAFHVGKTPIVGQPSIPGGPVRLCPGRIRYFKI
modifications: sialylated glycans (multiple copies of the αNeu5Ac(2→3)βGal(1→4)βGlc- structure)

Test [1] deals with pertussis toxin (Bordetella pertussis) (UniProt P04977).
The target in test [2] is fetuin (Bos taurus (Bovine)) (UniProt P12763). In words: inhibition ELISA; competitor WGA-biotin on coated fetuin; peptide 4.4 mg/ml (repeats Table II). Background: ELISA stands for enzyme-linked immunosorbent assay.
Test [3] shares this target. In words: inhibition ELISA; competitor PT-biotin on coated fetuin; peptide 4.4 mg/ml (repeats Table II).
Test [4] has the same target. Description: inhibition ELISA; competitor SNA-biotin on coated fetuin; peptide 4.4 mg/ml (Table II prints -2 ± 2).
Test [5] has the same target. Description: inhibition ELISA; competitor ACS2P1-biotin on coated fetuin; peptide 5520 µM.
For test [6] the target is unchanged. Description: inhibition ELISA; competitor WGA-biotin on coated fetuin; peptide 4.4 mg/mL.
For test [7] the target is unchanged. In words: inhibition ELISA; competitor SNA-biotin on coated fetuin; peptide 4.4 mg/mL.
The target is the same in test [8]. Description: inhibition ELISA; competitor MAL-biotin on coated fetuin; peptide 4.4 mg/mL.
The target is the same in test [9]. Description: inhibition ELISA; competitor PT-biotin on coated fetuin; peptide 4.4 mg/mL.
In test [10] the target is asialofetuin (Bos taurus (Bovine)) (UniProt P12763). In words: inhibition ELISA; competitor ACS2P1-biotin on coated asialofetuin; peptide 5520 µM.
For test [11], the target named is fetuin (Bos taurus (Bovine)) (UniProt P12763). Description: inhibition ELISA; competitor MAL-biotin on coated fetuin; peptide 4.4 mg/ml (repeats Table II).
Test [12] addresses asialofetuin (Bos taurus (Bovine)) (UniProt P12763). Description: inhibition ELISA; competitor PT-biotin on coated asialofetuin; peptide 4.4 mg/mL.
Test [13] addresses αNeuAc(2-3)βGal(1-4)βGlcNAc-BSA with (1-3) αFuc (bovine) (UniProt P02769). Description: direct ELISA, 0.5 µg biotinylated peptide on BSA conjugate coated at 50 µg/mL.
Test [14] has as its target αNeuAc(2-3)βGal(1-3)βGlcNAc-BSA with (1-4) αFuc (bovine) (UniProt P02769). The test is described as above.
The target in test [15] is αNeuAc(2-6)βGal(1-4)βGlcNAc-BSA (bovine) (UniProt P02769). The test is described as above.
Test [16] deals with αNeuAc(2-3)βGal(1-4)βGlcNAc-BSA (bovine) (UniProt P02769). Described as above.
In test [17] the target is αNeuAc(2-3)βGal(1-3)βGlcNAc-BSA (bovine) (UniProt P02769). The description is as above.
The target of test [18] is fetuin (Bos taurus (Bovine)) (UniProt P12763). Description: inhibition ELISA; competitor WGA-biotin on coated fetuin; peptide 1.0 mg/mL.
The target is the same in test [19]. In words: inhibition ELISA; competitor WGA-biotin on coated fetuin.
The target is the same in test [20]. Description: inhibition ELISA; competitor PT-biotin on coated fetuin; peptide 1.0 mg/mL.
For test [21] the target is unchanged. Description: inhibition ELISA; competitor PT-biotin on coated fetuin.
Test [22] has the same target. Description: inhibition ELISA; competitor SNA-biotin on coated fetuin; peptide 1.0 mg/mL.
The target is the same in test [23]. In words: inhibition ELISA; competitor MAL-biotin on coated fetuin; peptide 1.0 mg/mL.
Test [24] addresses T1, pertussis toxin (Bordetella pertussis, UniProt P04977). Description: cell-based or functional assay.
For test [25], the target named is T1, pertussis toxin. In words: inhibition ELISA; fetuin against ACS2P1-biotin on immobilised PT.
A further test deals with T2, asialofetuin (Bos taurus (Bovine), UniProt P12763, glycans without sialic acid (asialo-)).
T2 sequence: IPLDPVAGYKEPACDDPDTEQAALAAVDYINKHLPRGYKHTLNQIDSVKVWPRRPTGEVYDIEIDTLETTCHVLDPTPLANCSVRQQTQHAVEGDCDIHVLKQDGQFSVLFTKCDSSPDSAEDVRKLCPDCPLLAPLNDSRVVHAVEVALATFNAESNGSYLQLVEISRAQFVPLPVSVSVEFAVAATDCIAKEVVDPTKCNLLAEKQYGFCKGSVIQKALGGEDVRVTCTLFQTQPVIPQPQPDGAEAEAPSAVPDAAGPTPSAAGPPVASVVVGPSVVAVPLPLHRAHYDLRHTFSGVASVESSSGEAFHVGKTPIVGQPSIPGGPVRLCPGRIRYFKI
Description: direct ELISA, 10 µg/ml biotinylated peptide on glycoprotein coated at 3 µg/ml.

For another test, the target named is T3, asialoagalactofetuin (Bos taurus (Bovine), UniProt P12763, glycans without sialic acid and galactose (asialoagalacto-)).
T3 sequence: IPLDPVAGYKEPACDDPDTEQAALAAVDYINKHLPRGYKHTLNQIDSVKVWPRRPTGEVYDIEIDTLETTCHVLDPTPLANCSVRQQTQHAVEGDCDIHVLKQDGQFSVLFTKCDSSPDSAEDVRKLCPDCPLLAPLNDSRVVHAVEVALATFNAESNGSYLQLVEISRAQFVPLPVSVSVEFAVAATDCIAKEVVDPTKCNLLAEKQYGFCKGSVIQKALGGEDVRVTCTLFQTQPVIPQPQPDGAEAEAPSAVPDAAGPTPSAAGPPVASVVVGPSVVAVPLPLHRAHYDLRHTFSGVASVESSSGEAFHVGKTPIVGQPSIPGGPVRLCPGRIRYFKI
The test is described as above.

The target of test [26] is αNeuAc(2-3)βGal(1-3)βGlcNAc-BSA (bovine, UniProt P02769, conjugated carbohydrate αNeuAc(2-3)βGal(1-3)βGlcNAc-). Description: direct ELISA, 0.1 µg biotinylated peptide on BSA conjugate coated at 50 µg/mL.
The target in test [27] is αNeuAc(2-6)βGal(1-4)βGlcNAc-BSA (bovine, UniProt P02769, conjugated carbohydrate αNeuAc(2-6)βGal(1-4)βGlcNAc-). The test is described as above.
In test [28] the target is αNeuAc(2-3)βGal(1-4)βGlcNAc-BSA (bovine, UniProt P02769, conjugated carbohydrate αNeuAc(2-3)βGal(1-4)βGlcNAc-). The test is described as above.
The target of test [29] is αNeuAc(2-3)βGal(1-3)βGlcNAc-BSA with (1-4) αFuc (bovine, UniProt P02769, conjugated carbohydrate αNeuAc(2-3)βGal(1-3)[αFuc(1-4)]βGlcNAc-). Described as above.
Test [30] addresses αNeuAc(2-3)βGal(1-4)βGlcNAc-BSA with (1-3) αFuc (bovine, UniProt P02769, conjugated carbohydrate αNeuAc(2-3)βGal(1-4)[αFuc(1-3)]βGlcNAc-). Described as above.
Test [31] concerns the target B1. In words: inhibition ELISA; competitor WGA-biotin on coated fetuin.
The target of test [32] is B1. In words: inhibition ELISA; competitor ACS2P1-biotin on coated fetuin; concentration giving -50% (called IC50 in paragraph 228, n=2).

No end group written: not given here. *: point of attachment. Biotin = O=C1N[C@H]2[C@H](CS[C@H]2CCCCC(=O)*)N1

In turn, SPYGRC (peptide) came in with a Maximal Inhibitory Concentration for Greater than 50% Inhibition (CHO cell clumping) in test [1] of 480 pg/mL.

Take “SPYGRC (peptide; other documents disagree on this pair)”: the % changes in binding activity in test [2] was 7%; in test [3] it was 34%; in test [4], -2%; in [11], -16%. Moreover, the percent change in binding activity is -24% in [5]; 7% in [6]; -2% in [7]; -16% in test [8]; 34% in test [9]; -54% in test [10]. In addition, the percent change in binding activity in [12] came out at 7%.

As for “SPYGRC-biotin (peptide; other documents disagree on this pair)”, the % binding relative to fetuin in test [13] is 120%; in test [14], 103%; in test [15] it was 122%; in [16], 120%; in test [17] it was 97%.

The IC50 is the concentration that gives 50% inhibition. The low end stands for higher potency, the high end for lower potency. With WGA(62-73) (peptide), the percent change in binding activity in test [18] is -9%; in test [20], -32%; in [22], -3%; in test [23], -1%. The IC50 is 3.4 mM in test [19] and 1.5 mM in test [21].

For the molecule PKALFTQQGGAYGRC [S3P1], in the test with pertussis toxin [24], the “Maximal Inhibitory Concentration for Greater than 50% Inhibition (CHO cell clumping)” value is above 300 ng/mL.

As for RLLASTNSRLCAVFVRDG [S3P9a], the “Maximal Inhibitory Concentration for Greater than 50% Inhibition (CHO cell clumping)” value with pertussis toxin [24] is above 300 ng/mL.

The molecule B1 came in with an IC50 with pertussis toxin [25] of 0.05 mM.

PQEQITQHGSPYGRC (biotinylated at the terminal proline; C-terminal -CO--NH2; acetylated (position not given)) [ACS2P1-biotin]: the “% binding relative to fetuin” value was determined as 45% with asialofetuin; 93% with asialoagalactofetuin; 70% in [26]; 94% in test [27]; 117% in test [28]; 84% in test [29]. Besides, in test [30], the “% binding relative to fetuin” value came out at 84%.

Consider STPGIVIPPQEQITQHGSPYGRC [S2P2], for which the “Maximal Inhibitory Concentration for Greater than 50% Inhibition (CHO cell clumping)” value in the test with pertussis toxin [24] was above 300 ng/mL.

As to VAPGIVIPPKALFTQQGGAYGRC [S3P2], in the test with pertussis toxin [24], the “Maximal Inhibitory Concentration for Greater than 50% Inhibition (CHO cell clumping)” value is above 300 ng/mL.

PQEQITQHGSPYGRC (also: acetylated, site not given here) [ACS2P1]: the IC50 with fetuin [31] came to 3.25 mM; with fetuin [32] it was 0.0041 mM.

For the origin of these results see US5736143, “Anti-inflammatory, tolerogenic and immunoinhibiting properties of carbohydrate binding-peptides” (Alberta Research Council, dated 1998).
